Conditions: Escherichia coli (strain K12); pH 7.8; 25 °C; Urea; CD; potassium phosphate 10 mM; transition: 3; whole UniProt chain shown

B1: Tryptophan synthase alpha chain wild type, P0A877 (protein)
chain: MERYESLFAQLKERKEGAFVPFVTLGDPGIEQSLKIIDTLIEAGADALELGIPFSDPLADGPTIQNATLRAFAAGVTPAQCFEMLALIRQKHPTIPIGLLMYANLVFNKGIDEFYAQCEKVGVDSVLVADVPVEESAPFRQAALRHNVAPIFICPPNADDDLLRQIASYGRGYTYLLSRAGVTGAENRAALPLNHLVAKLKEYNAAPPLQGFGISAPDQVKAAIDAGAAGAISGSAIVKIIEQHINEPEKMLAALKVFVQPMKAATRS
  denaturant m value: 2.29 kcal/mol/M
  denaturant midpoint (higher = more stable): 2.68 M
  unfolding free energy: 25.6 kJ/mol
